According to the supplement of paper PMC9112550, “Optimization of the antimicrobial peptide Bac7 by deep mutational scanning” (BMC Biology, 2022):

system: Escherichia coli TOP10; assay: shrunken log2 fold change of peptide-encoding DNA abundance (4.5 h post-induction vs induction); higher = less antimicrobial activity (less host growth inhibition); conditions: time post-induction: 4.5 h; library: site-saturation at positions 5, 18, 19, 20
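Also: peptides expressed intracellularly from a pBAD plasmid library in pooled LB shake-flask culture, induced with 0.3% L-arabinose, DNA abundance read by NGS, three biological replicates, DESeq2 with apeglm shrinkage.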

Sequence | shrunken log2 fold change
RRIRGRPPRLPRPRPRPVKPPRP | 0.268
RRIRGRPPRLPRPRPRPVNIPRP | 0.145
RRIRGRPPRLPRPRPRPVPKPRP | 0.92
RRIRGRPPRLPRPRPRPVPWPRP | 0.526
RRIRGRPPRLPRPRPRPVQKPRP | 0.434
RRIRGRPPRLPRPRPRPVRMPRP | 0.963
RRIRGRPPRLPRPRPRPVSLPRP | 0.321
RRIRGRPPRLPRPRPRPVYDPRP | 0.32
RRIRGRPPRLPRPRPRPWALPRP | -0.115
RRIRGRPPRLPRPRPRPWCCPRP | 0.0685
RRIRGRPPRLPRPRPRPWCLPRP | -0.262
RRIRGRPPRLPRPRPRPWCVPRP | 0.121
RRIRGRPPRLPRPRPRPWDDPRP | 0.137
RRIRGRPPRLPRPRPRPWDEPRP | 0.0077
RRIRGRPPRLPRPRPRPWFIPRP | -0.361
RRIRGRPPRLPRPRPRPWFQPRP | 0.0619
RRIRGRPPRLPRPRPRPWITPRP | -0.204
RRIRGRPPRLPRPRPRPWIWPRP | 0.236
RRIRGRPPRLPRPRPRPWLDPRP | 0.0661
RRIRGRPPRLPRPRPRPWLLPRP | 0.216
RRIRGRPPRLPRPRPRPWMWPRP | 0.218
RRIRGRPPRLPRPRPRPWNYPRP | -0.0902
RRIRGRPPRLPRPRPRPWPAPRP | 0.763
RRIRGRPPRLPRPRPRPWPKPRP | 0.199
RRIRGRPPRLPRPRPRPWQKPRP | 0.09

Sequence | shrunken log2 fold change
RRIRGRPPRLPRPRPRPWQYPRP | -0.0381
RRIRGRPPRLPRPRPRPWRCPRP | 0.0546
RRIRGRPPRLPRPRPRPWRKPRP | 0.12
RRIRGRPPRLPRPRPRPWRVPRP | 0.499
RRIRGRPPRLPRPRPRPWSFPRP | -0.113
RRIRGRPPRLPRPRPRPWSPPRP | 0.178
RRIRGRPPRLPRPRPRPWSWPRP | 1.1
RRIRGRPPRLPRPRPRPWTEPRP | 0.128
RRIRGRPPRLPRPRPRPWYHPRP | -0.347
RRIRGRPPRLPRPRPRPYCCPRP | -0.0424
RRIRGRPPRLPRPRPRPYDAPRP | -0.317
RRIRGRPPRLPRPRPRPYEEPRP | 0.106
RRIRGRPPRLPRPRPRPYEKPRP | -0.0149
RRIRGRPPRLPRPRPRPYETPRP | 0.16
RRIRGRPPRLPRPRPRPYFAPRP | 0.357
RRIRGRPPRLPRPRPRPYIIPRP | -0.158
RRIRGRPPRLPRPRPRPYKKPRP | -0.186
RRIRGRPPRLPRPRPRPYKMPRP | -0.234
RRIRGRPPRLPRPRPRPYKYPRP | -0.346
RRIRGRPPRLPRPRPRPYLCPRP | 0.0395
RRIRGRPPRLPRPRPRPYNAPRP | -0.332
RRIRGRPPRLPRPRPRPYPGPRP | -0.0165
RRIRGRPPRLPRPRPRPYPRPRP | 0.162
RRIRGRPPRLPRPRPRPYQEPRP | 0.0063
RRIRGRPPRLPRPRPRPYRRPRP | -0.00129

Sequence | shrunken log2 fold change
RRIRGRPPRLPRPRPRPYRYPRP | 0.322
RRIRGRPPRLPRPRPRPYSEPRP | -0.093
RRIRGRPPRLPRPRPRPYSPPRP | -0.528
RRIRGRPPRLPRPRPRPYSVPRP | 0.0284
RRIRGRPPRLPRPRPRPYTNPRP | -0.313
RRIRGRPPRLPRPRPRPYVNPRP | 0.0862
RRIRGRPPRLPRPRPRPYWQPRP | -0.369
RRIRGRPPRLPRPRPRPYYHPRP | -0.204
RRIRHRPPRLPRPRPRPACAPRP | 0.436
RRIRHRPPRLPRPRPRPACQPRP | 0.0463
RRIRHRPPRLPRPRPRPACRPRP | -0.141
RRIRHRPPRLPRPRPRPADPPRP | 0.0438
RRIRHRPPRLPRPRPRPADRPRP | -0.0209
RRIRHRPPRLPRPRPRPAGNPRP | 0.023
RRIRHRPPRLPRPRPRPAHKPRP | -0.0386
RRIRHRPPRLPRPRPRPAIAPRP | 0.0527
RRIRHRPPRLPRPRPRPALAPRP | 0.24
RRIRHRPPRLPRPRPRPALPPRP | 0.0229
RRIRHRPPRLPRPRPRPAMLPRP | -0.168
RRIRHRPPRLPRPRPRPAMRPRP | 1.1
RRIRHRPPRLPRPRPRPANEPRP | 0.0508
RRIRHRPPRLPRPRPRPAQEPRP | 0.381
RRIRHRPPRLPRPRPRPAQVPRP | -0.0333
RRIRHRPPRLPRPRPRPAQWPRP | 0.112
RRIRHRPPRLPRPRPRPARAPRP | 0.345

Sequence | shrunken log2 fold change
RRIRHRPPRLPRPRPRPARVPRP | 0.502
RRIRHRPPRLPRPRPRPASSPRP | 0.0164
RRIRHRPPRLPRPRPRPAVDPRP | 0.0722
RRIRHRPPRLPRPRPRPCCRPRP | -0.276
RRIRHRPPRLPRPRPRPCFIPRP | -0.385
RRIRHRPPRLPRPRPRPCGPPRP | -0.084
RRIRHRPPRLPRPRPRPCHQPRP | -0.601
RRIRHRPPRLPRPRPRPCIPPRP | -0.809
RRIRHRPPRLPRPRPRPCKGPRP | -0.0269
RRIRHRPPRLPRPRPRPCKSPRP | 0.0139
RRIRHRPPRLPRPRPRPCKVPRP | -0.0825
RRIRHRPPRLPRPRPRPCKYPRP | 0.0259
RRIRHRPPRLPRPRPRPCLAPRP | -0.0627
RRIRHRPPRLPRPRPRPCLHPRP | -0.0114
RRIRHRPPRLPRPRPRPCNWPRP | -0.0331
RRIRHRPPRLPRPRPRPCPQPRP | -0.195
RRIRHRPPRLPRPRPRPCQGPRP | -0.00822
RRIRHRPPRLPRPRPRPCQNPRP | -0.0608
RRIRHRPPRLPRPRPRPCRIPRP | -0.0589
RRIRHRPPRLPRPRPRPCSMPRP | -0.0569
RRIRHRPPRLPRPRPRPCSYPRP | -0.0203
RRIRHRPPRLPRPRPRPCVCPRP | 0.0978
RRIRHRPPRLPRPRPRPCWHPRP | -0.112
RRIRHRPPRLPRPRPRPDACPRP | -0.0498
RRIRHRPPRLPRPRPRPDAMPRP | -0.00187

Sequence | shrunken log2 fold change
RRIRHRPPRLPRPRPRPDCYPRP | -0.0716
RRIRHRPPRLPRPRPRPDDKPRP | -0.359
RRIRHRPPRLPRPRPRPDFNPRP | -0.607
RRIRHRPPRLPRPRPRPDFQPRP | -0.00193
RRIRHRPPRLPRPRPRPDFVPRP | -0.242
RRIRHRPPRLPRPRPRPDHQPRP | 0.0561
RRIRHRPPRLPRPRPRPDLDPRP | -0.0331
RRIRHRPPRLPRPRPRPDLQPRP | -0.15
RRIRHRPPRLPRPRPRPDMAPRP | -0.0459
RRIRHRPPRLPRPRPRPDMEPRP | -0.336
RRIRHRPPRLPRPRPRPDNAPRP | -0.34
RRIRHRPPRLPRPRPRPDNGPRP | -0.00804
RRIRHRPPRLPRPRPRPDNSPRP | -1.1
RRIRHRPPRLPRPRPRPDNYPRP | -0.0274
RRIRHRPPRLPRPRPRPDPRPRP | 0.0959
RRIRHRPPRLPRPRPRPDQNPRP | -0.14
RRIRHRPPRLPRPRPRPDSGPRP | -0.0385
RRIRHRPPRLPRPRPRPDWEPRP | -0.00783
RRIRHRPPRLPRPRPRPDWHPRP | 2.17
RRIRHRPPRLPRPRPRPDWQPRP | 0.00196
RRIRHRPPRLPRPRPRPDYQPRP | -0.0951
RRIRHRPPRLPRPRPRPDYWPRP | -0.187
RRIRHRPPRLPRPRPRPEATPRP | 0.0573
RRIRHRPPRLPRPRPRPEAVPRP | -0.00144
RRIRHRPPRLPRPRPRPECLPRP | -0.00297

Sequence | shrunken log2 fold change
RRIRHRPPRLPRPRPRPECMPRP | -0.0379
RRIRHRPPRLPRPRPRPECYPRP | -0.0176
RRIRHRPPRLPRPRPRPEDCPRP | -0.0178
RRIRHRPPRLPRPRPRPEDLPRP | 0.172
RRIRHRPPRLPRPRPRPEDRPRP | -0.0767
RRIRHRPPRLPRPRPRPEFSPRP | -0.246
RRIRHRPPRLPRPRPRPEGEPRP | 0.0139
RRIRHRPPRLPRPRPRPEGNPRP | -0.0642
RRIRHRPPRLPRPRPRPEGPPRP | -0.0401
RRIRHRPPRLPRPRPRPEIFPRP | -0.0725
RRIRHRPPRLPRPRPRPEIPPRP | -0.111
RRIRHRPPRLPRPRPRPEKDPRP | -0.0422
RRIRHRPPRLPRPRPRPELNPRP | -0.098
RRIRHRPPRLPRPRPRPEMMPRP | -0.0229
RRIRHRPPRLPRPRPRPENQPRP | -0.243
RRIRHRPPRLPRPRPRPERKPRP | 0.0547
RRIRHRPPRLPRPRPRPESKPRP | -0.135
RRIRHRPPRLPRPRPRPETAPRP | 0.346
RRIRHRPPRLPRPRPRPETSPRP | 0.0165
RRIRHRPPRLPRPRPRPEVRPRP | -0.00149
RRIRHRPPRLPRPRPRPEWAPRP | -0.0848
RRIRHRPPRLPRPRPRPEWNPRP | -0.294
RRIRHRPPRLPRPRPRPEYRPRP | -0.0136
RRIRHRPPRLPRPRPRPFDCPRP | -0.186
RRIRHRPPRLPRPRPRPFDMPRP | -0.00783
